Experimental data from patent US10266565B2, “Peptide mimetic ligands of polo-like kinase 1 polo box domain and methods of use” (The United States of America, as represented by the …, priority 2011, dated 2019).
Entries after “also recorded” stand apart in the source; their conditions may differ. Where a SMILES comes first, the peptide text is derived from it. Where no end group is shown, it is not given here. [ ]: non-standard residue; d: D form. The star is where a group is joined. His(π-(CH2)8Ph) = N[C@@H](Cc1cncn1CCCCCCCCc1ccccc1)C(=O)O; Abu(3R-Me,4-PO3H2) = C[C@@H](CP(=O)(O)O)[C@H](N)C(=O)O; CH3O(CH2CH2O)7C2H4CO = COCCOCCOCCOCCOCCOCCOCCOCCC(=O)*; pT = C[C@@H](OP(=O)(O)O)[C@H](N)C(=O)O; PEG = not defined here

Tests used:
Plk1 PBD = Plk1 PBD (Homo sapiens, UniProt P53350); test: Isothermal titration calorimetry with recombinant Plk1 PBD; assay type: binding
Sequence of Plk1 PBD (P53350 326-603): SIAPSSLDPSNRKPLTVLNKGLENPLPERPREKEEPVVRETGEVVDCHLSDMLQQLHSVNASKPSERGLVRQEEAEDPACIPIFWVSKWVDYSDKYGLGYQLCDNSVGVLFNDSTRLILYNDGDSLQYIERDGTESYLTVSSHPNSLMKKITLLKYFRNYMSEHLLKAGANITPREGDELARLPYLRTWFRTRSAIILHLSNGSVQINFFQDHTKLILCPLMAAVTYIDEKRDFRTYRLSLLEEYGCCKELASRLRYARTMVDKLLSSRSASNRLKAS

[1] = biological target: Plk1 PBD-p-Cdc25C interaction (Homo sapiens, UniProt P53350); test: Competition of the PBD-p-Cdc25C interaction in mitotic HeLa lysates; assay type: binding; conditions: GST-PBD
Sequence of Plk1 PBD-p-Cdc25C interaction (P53350 326-603 limits assumed): as the sequence (P53350 326-603) above
Experimental: For p-Cdc25C pull-down assays, either bead-bound GST-PBD or the corresponding GST-PBD(H538A K540M) mutant was incubated with mitotic HeLa lysates in TBSN buffer supplemented with 2 mM DTT. To test the ability of the indicated peptides to compete the PBD-p-Cdc25C interaction, lysates were pre-incubated with GST-PBD for 1.5 h prior to the addition of the indicated peptides. Lysates were then incubated for additional 1.5 h, washed in the binding buffer, and then analyzed. For competition of the interaction between p-Cdc25C and endogenous Plk1, mitotic lysates were prepared in TBSN and incubated with the indicated peptides for 1 h before subjecting to immunoprecipitation with anti-Plk1 antibody.

Plk1 = biological target: T1, Plk1 (Homo sapiens, UniProt P53350); test: Peptide pull-down assay with bead-immobilized peptides, Plk1; assay type: binding; conditions: for Plk1 binding / precipitation in pull-down, in words: mitotic cell lysates
T1 construct: we used total lysates prepared from mitotic HeLa cells; endogenous in cells; host or cells: mitotic (nocodazole-arrested) HeLa cells
T1 sequence (P53350 2-603): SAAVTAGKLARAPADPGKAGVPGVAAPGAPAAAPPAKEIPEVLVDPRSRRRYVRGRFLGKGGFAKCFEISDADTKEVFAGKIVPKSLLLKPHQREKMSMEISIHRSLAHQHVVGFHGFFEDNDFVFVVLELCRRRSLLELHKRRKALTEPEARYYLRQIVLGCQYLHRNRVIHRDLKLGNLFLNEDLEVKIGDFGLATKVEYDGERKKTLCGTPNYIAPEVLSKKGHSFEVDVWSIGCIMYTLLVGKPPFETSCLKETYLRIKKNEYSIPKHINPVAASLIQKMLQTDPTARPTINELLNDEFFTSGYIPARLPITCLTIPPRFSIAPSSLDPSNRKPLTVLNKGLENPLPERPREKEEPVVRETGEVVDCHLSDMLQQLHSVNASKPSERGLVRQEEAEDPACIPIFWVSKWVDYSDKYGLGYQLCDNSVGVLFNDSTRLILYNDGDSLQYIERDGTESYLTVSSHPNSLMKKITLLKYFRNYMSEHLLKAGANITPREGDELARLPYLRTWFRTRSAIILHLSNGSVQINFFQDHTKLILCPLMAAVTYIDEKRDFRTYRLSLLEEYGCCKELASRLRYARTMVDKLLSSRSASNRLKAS
Experimental: For Plk1 pull-down assays with immobilized peptides, we used total lysates prepared from mitotic HeLa cells. […] Cells treated with 200 ng/ml of nocodazole for 16 h were lysed in TBSN buffer {20 mM Tris-Cl (pH8.0), 150 mM NaCl, 0.5% NP-40, 5 mM EGTA, 1.5 mM EDTA, 0.5 mM Na3VO4, 20 mM p-nitrophenyl phosphate, and protease inhibitor cocktail (Roche, Nutley, N.J.)}, and then clarified by centrifugation at 15,000×g for 20 min at 4° C. The resulting lysates were incubated with bead-immobilized peptides (40 μM per binding) for 2 h, precipitated, washed, and then boiled in sodium dodecyl sulfate (SDS) sample buffer to elute the associated proteins. Samples were separated by 10% SDS-polyacrylamide gel electrophoresis (PAGE), and then either stained with silver or transferred to PVDF membrane for immunoblotting analysis with anti-Plk1 antibody using the enhanced chemiluminescence (ECL) detection system (Pierce). […]

HeLa cells [2] = test: Direct treatment of cultured HeLa cells (mitotic arrest, apoptotic cell death, Plk1 localization); assay type: cell-based; conditions: 200 μM
[3] = biological target: recombinant Plk1 PBD (full length PBD, calorimetry) (UniProt P53350); test: ITC, 25 C; 5-mer LHSpTA (SEQ ID NO: 3)
Sequence of recombinant Plk1 PBD (full length PBD, calorimetry) (P53350 326-603 limits assumed): as the sequence (P53350 326-603) above

HeLa cells [4] = test: Microinjection of peptides into HeLa cells; assay type: cell-based; conditions: for Plk1 localization at centrosomes and kinetochores: microinjection; for mitotic arrest / cell cycle effect, in words: peptide introduced into the cells
Experimental: HeLa cells were cultured as subconfluent monolayers under the conditions recommended by American Type Culture Collection (Manassas, Va.). […] No mitotic exit was observed during the period of 10 min BMI-1026 treatment. For microinjection experiments with the Pmab-containing mimetic peptides, cells were arrested for 16 h with 2.5 mM thymidine (Sigma) and released into fresh medium. Two hours after release from the S phase block, the indicated peptides (2.5 mM stock in PBS) were microinjected into the cells using Eppendorf® Transjector 5246 (Eppendorf®, Westbury, N.Y.) at the 150 hPa pressure level and the 0.5 second injection time. All the cells in a single grid were injected and then further incubated to monitor cell cycle progression. For microinjection experiments with the F2Pmab-containing mimetic peptides, cells were arrested with 2.5 mM thymidine for 16 h twice with a 9 h release interval, and then released into fresh medium. Seven hours after release from the G1/S phase block, the indicated peptides (4 mM stock in PBS) were microinjected similarly as above. Where indicated, peptides containing the final concentration of 30 ng/μl of pEGFP-C1 vector (Clontech®, Mountain View, Calif.) were used to visualize the injected cells.
Four hours after microinjection, cells were fixed and subjected to immunostaining analyses as described below.
Similar methods were used for the experiments shown in FIG. 16 using the peptides indicated. HeLa cells were arrested at the G1/S boundary by double thymidine treatment and released into fresh medium. […] Co-injected EGFP plasmid provided a convenient marker to identify the microinjected cells.
Indirect immunostaining was carried out as described previously (5) using anti-Plk1 antibody (Santa Cruz Biotechnologies, Santa Cruz, Calif.) and anti-CREST antiserum (Cortex Biochem, San Leandro, Calif.). All the appropriate secondary antibodies were purchased from Jackson ImmunoResearch Laboratories, Inc. (West Grove, Pa.). Biotinylated F2Pmab-positive cells were detected by co-staining with FITC-conjugated Streptavidin (Invitrogen®, Carlsbad, Calif.). Chromosomes were visualized with 4′,6-diamidino-2-phenylindole (DAPI) (Sigma). Digital images were collected with a Zeiss LSM510 confocal microscope. For the quantification of the fluorescence signal intensities, images of unsaturated fluorescence signals were acquired with the same laser intensity at 512×512 pixels and 12-bit resolution. Fluorescence intensities for localized signals were determined after subtracting the background signal intensities using Zeiss AIM confocal software.

Plk2 PBD = biological target: T2, Plk2 PBD (Homo sapiens, UniProt Q9NYY3); test: Isothermal titration calorimetry with recombinant Plk2 PBD; conditions: titrated into Plk2 PBD
T2 sequence (Q9NYY3 373-685): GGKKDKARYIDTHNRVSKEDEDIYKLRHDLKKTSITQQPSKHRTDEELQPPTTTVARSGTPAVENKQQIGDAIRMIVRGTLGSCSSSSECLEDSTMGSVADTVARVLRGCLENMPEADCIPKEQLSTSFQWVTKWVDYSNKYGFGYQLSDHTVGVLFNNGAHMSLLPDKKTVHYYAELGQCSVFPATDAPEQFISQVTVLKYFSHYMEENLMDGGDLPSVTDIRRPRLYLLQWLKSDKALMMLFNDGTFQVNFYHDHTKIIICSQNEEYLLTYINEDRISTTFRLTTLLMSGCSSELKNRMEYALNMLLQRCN

Plk2 = biological target: T3, Plk2 (Mus musculus, UniProt P53351, K108M); test: Peptide pull-down assay with bead-immobilized peptides, Plk2; assay type: binding
T3 construct: expressed in transfected cells
T3 sequence (P53351 whole entry K108M): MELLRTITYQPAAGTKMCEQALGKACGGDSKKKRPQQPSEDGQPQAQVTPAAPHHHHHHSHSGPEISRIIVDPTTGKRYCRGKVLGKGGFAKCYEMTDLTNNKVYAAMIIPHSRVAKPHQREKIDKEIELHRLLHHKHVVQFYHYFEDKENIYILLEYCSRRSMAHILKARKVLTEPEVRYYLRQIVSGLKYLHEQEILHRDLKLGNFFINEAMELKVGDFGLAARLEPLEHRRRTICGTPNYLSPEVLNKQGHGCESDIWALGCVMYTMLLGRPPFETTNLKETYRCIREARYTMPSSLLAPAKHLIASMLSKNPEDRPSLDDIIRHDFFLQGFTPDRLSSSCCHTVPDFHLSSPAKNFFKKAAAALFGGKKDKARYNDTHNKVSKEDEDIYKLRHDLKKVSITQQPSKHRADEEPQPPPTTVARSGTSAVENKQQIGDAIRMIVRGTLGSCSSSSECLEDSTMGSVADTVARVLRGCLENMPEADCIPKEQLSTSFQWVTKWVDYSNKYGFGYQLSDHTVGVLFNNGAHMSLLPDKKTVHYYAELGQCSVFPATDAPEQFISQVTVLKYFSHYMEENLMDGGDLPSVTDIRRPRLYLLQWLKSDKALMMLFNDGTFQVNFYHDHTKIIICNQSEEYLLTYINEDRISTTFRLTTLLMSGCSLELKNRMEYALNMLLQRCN
Experimental: After incubating the cell lysates prepared in TBSN buffer {20 mM Tris-Cl (pH8.0), 150 mM NaCl, 0.5% Np-40, 5 mM EGTA, 1.5 mM EDTA, 20 mM p-nitrophenylphosphate and protease inhibitor cocktail (Roche, Nutley, N.J.)} with the bead-immobilized ligands for 2 h at 4° C., the ligand-associating proteins were precipitated, washed, boiled in sodium dodecyl sulfate (SDS) sample buffer, separated by 8% SDS-polyacrylamide gel electrophoresis (PAGE), and then subjected to immunoblotting analysis with anti-Flag antibody and the enhanced chemilunimescence (ECL) detection system (Pierce). The same membrane was also stained with Coomassies (CBB). Signal intensities were quantified using Image J program.
To investigate the binding specificity of p-T78 peptides to various Plks, Flag-Plk1 (K82M), Flag-Plk2(K108M)3 or Flag-Plk3(K52R) (a gift of Wei Dai, New York University School of Medicine, NY) construct was first transfected into HeLa cells. Cellular lysates were prepared as above, mixed, and then incubated in TBSN buffer with the immobilized peptides indicated.

Flag-Plk3 (K52R) = biological target: T4, Flag-Plk3 (K52R) (UniProt Q9H4B4 40-646, K52R); test: pull-down with bead-immobilized peptide, mixed Flag-Plk1/2/3 lysates (293T)
T4 construct: In lysates of transfected cells
T4 sequence (Q9H4B4 40-646 K91R): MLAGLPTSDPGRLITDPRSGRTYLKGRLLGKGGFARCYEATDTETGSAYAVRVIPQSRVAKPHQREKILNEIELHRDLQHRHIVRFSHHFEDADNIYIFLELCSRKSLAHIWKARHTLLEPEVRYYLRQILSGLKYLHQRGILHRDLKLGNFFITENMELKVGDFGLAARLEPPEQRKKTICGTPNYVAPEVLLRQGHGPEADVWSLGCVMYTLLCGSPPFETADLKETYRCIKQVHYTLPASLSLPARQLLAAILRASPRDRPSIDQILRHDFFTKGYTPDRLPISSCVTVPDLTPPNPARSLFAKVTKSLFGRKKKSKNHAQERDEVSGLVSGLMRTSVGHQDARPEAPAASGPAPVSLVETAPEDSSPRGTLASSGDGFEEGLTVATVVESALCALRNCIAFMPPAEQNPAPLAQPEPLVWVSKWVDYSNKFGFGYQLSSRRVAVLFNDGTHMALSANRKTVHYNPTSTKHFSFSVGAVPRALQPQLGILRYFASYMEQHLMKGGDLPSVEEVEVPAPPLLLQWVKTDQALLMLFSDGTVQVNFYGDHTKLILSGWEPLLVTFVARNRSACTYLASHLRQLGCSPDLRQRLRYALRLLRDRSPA

[5] = biological target: Plk1 PBD (construct and assay format not stated at these places) (UniProt P53350); test: assay not given
Sequence of Plk1 PBD (construct and assay format not stated at these places) (P53350 326-603 limits assumed): as the sequence (P53350 326-603) above

[6] = biological target: Plk1 (endogenous, HeLa cells) (UniProt P53350); test: pull-down with bead-immobilized peptide, mitotic HeLa lysate
Sequence of Plk1 (endogenous, HeLa cells) (P53350 2-603 limits assumed): as the sequence (P53350 2-603) above

HSpTA: 4-mer p-T78 peptide "HSpTA (SEQ ID NO: 15)" (HS[pT]A)
binding affinity by calorimetry, in words (Plk1 PBD): much lower affinities | disruption of the pre-formed PBD-p-Cdc25C complex [1]: disrupted the complex weakly | Plk1 binding / precipitation in pull-down, in words (Plk1): bound to Plk1 better than SpTAI

MLHSpT: "a Pro-4 to Met-4 mutant, MLHSpT (SEQ ID NO: 18)" (MLHS[pT])
Plk1 binding / precipitation in pull-down, in words (Plk1): greatly diminished level of Plk1 PBD binding

PLHA-Pmab: "a mutation of the invariably required Ser-1 residue to Ala {PLHA-Pmab (SEQ ID NO: 20); in short, Pmab(S77A)}" (PLHA[Abu(3R-Me,4-PO3H2)])
Plk1 binding / precipitation in pull-down, in words (Plk1): abolished the Plk1 binding

COCCOCCOCCOCCOCCOCCOCCOCCC(=O)N1CCC[C@H]1C(=O)N[C@@H](CC(C)C)C(=O)N[C@@H](Cc1cnc[nH]1)C(=O)N[C@@H](CO)C(=O)N[C@H](C(N)=O)[C@@H](C)CP(=O)(O)O [PEG-1*]
Plk1 delocalization and misaligned chromosomes (HeLa cells [2]): only mild Plk1 delocalization with a moderate level of misaligned chromosomes | mitotic arrest / apoptotic cell death / cellular response (HeLa cells [2]): weak but significant level of mitotic arrest

LHSpTA (peptide)
Kd [3]: 450 nM

COCCOCCOCCOCCOCCOCCOCCOCCC(=O)N1CCC[C@H]1C(=O)N[C@@H](CC(C)C)C(=O)N[C@@H](Cc1cncn1CCCCCCCCc1ccccc1)C(=O)N[C@@H](C)C(=O)N[C@H](C(N)=O)[C@@H](C)CP(=O)(O)O [PEG-4j* (S/A)] ({CH3O(CH2CH2O)7C2H4CO}-PL[His(π-(CH2)8Ph)]A[Abu(3R-Me,4-PO3H2)]-NH2)
Plk1 delocalization and misaligned chromosomes (HeLa cells [2]): not | mitotic arrest / apoptotic cell death / cellular response (HeLa cells [2]): did not

Pmab(S77A): the S77A mutants of the Pmab- and the F2Pmab-containing peptides (24 and 26, respectively) (PLHA[Abu(3R-Me,4-PO3H2)])
Plk1 localization at centrosomes and kinetochores (HeLa cells [4]): not | mitotic arrest / cell cycle effect, in words (HeLa cells [4]): not

HSpTAI: "HSpTAI, lacking both Pro and Leu but instead bearing two additional C-terminal residues following the SpT motif" (HS[pT]AI)
Plk1 binding / precipitation in pull-down, in words (Plk1): bound to Plk1 only weakly

LHSpTAI: "the analogous p-T78 peptide (LHSpTAI (SEQ ID NO: 17))" (LHS[pT]AI)
binding affinity by calorimetry, in words (Plk1 PBD): slightly higher affinities than the 5-mer peptides | Plk1 binding / precipitation in pull-down, in words (Plk1): equivalent to that of the former

LHSpT: "LHSpT (SEQ ID NO: 14) lacking the N-terminal Pro" (LHS[pT])
binding affinity by calorimetry, in words (Plk1 PBD): much lower affinities | weaker binding than PLHSpT (Plk1 PBD; assay not given): ~50 fold | disruption of the pre-formed PBD-p-Cdc25C complex [1]: much less effective than PLHSpT; also recorded: disrupted the complex weakly | diminished binding affinity to Plk1 relative to PLHSpT (Plk1): ~7 fold | Plk1 binding / precipitation in pull-down, in words (Plk1): bound to Plk1 better than SpTAI

COCCOCCOCCOCCOCCOCCOCCOCCC(=O)N1CCC[C@H]1C(=O)N[C@@H](CC(C)C)C(=O)N[C@@H](Cc1cnc[nH]1)C(=O)N[C@@H](C)C(=O)N[C@H](C(N)=O)[C@@H](C)CP(=O)(O)O [PEG-1* (S/A)] ({CH3O(CH2CH2O)7C2H4CO}-PLHA[Abu(3R-Me,4-PO3H2)]-NH2)
Plk1 delocalization and misaligned chromosomes (HeLa cells [2]): not | mitotic arrest / apoptotic cell death / cellular response (HeLa cells [2]): not

PLQSpT: "mutation of the His-2 to Gln"; "the PLQSpT mutant" of parent PLHSpT (PLQS[pT])
initial heats of interaction (Plk2 PBD): ~-1.1 kcal/mol | increase of the level of Plk2 binding (Plk2; His-2 to Gln mutant versus PLHSpT): 24 fold

CSCC[C@H](N)C(=O)N[C@@H](CCC(N)=O)C(=O)N[C@@H](CO)C(=O)N[C@H](C(=O)N1CCC[C@H]1C(=O)N[C@@H](CC(C)C)C(N)=O)[C@@H](C)OP(=O)(O)O [MQSpTPL, reference compound]
Plk2 precipitation as efficiency of Plk1 precipitation (Plk2; lysates with similar levels of Plk1, Plk2, Plk3): ~27%

non-phospho T78 peptide: "the respective non-phospho PLHST (SEQ ID NO: 11) control peptide"
Plk1 localization at centrosomes and kinetochores (HeLa cells [4]): not | mitotic arrest / cell cycle effect, in words (HeLa cells [4]): proceeded through the cell cycle normally

HSpT: "HSpT lacking both the Pro and Leu residues" (His-Ser-[pT])
Plk1 binding / precipitation in pull-down, in words (Plk1): did not exhibit any significant level of binding

B1: PEG-4j* (peptide)
peptide: {PEG}-PLH(Ph‑(CH2)8)S[Abu(3R-Me,4-PO3H2)]
modifications: reading uncertain
notes: T0009: Z = CH2, G = Ph-(CH2)8-, R1 = PEG; also called Cys-PEG-4j* (bead-immobilized form)
binding result (Flag-Plk3 (K52R)): no binding

Ac-PPHS[pT] [PPHSpT]
fold diminished binding affinity [5]: 20 fold

LHS[pT] [LHSpT]
fold weaker binding than PLHSpT [5]: 50 fold | fold diminished binding relative to PLHSpT [6]: 7 fold

Ac-PLH(Ph‑(CH2)8)S[pT] (also called peptide 4j; Compound 4j) [4j (Biological Example 1)]
binding result (Flag-Plk3 (K52R)): no binding
